This assay can be described thus: In vitro condensation of methyl ketones with formyl-CoA using purified enzymes. The following applies: 100 mM methyl ketone, 20 mM formate, 30° C., 24 hours, GC-MS. The assay is classed as biochemical. As for the experimental part: The formyl-CoA generation catalyzed by CoA transferase CaAbfT and condensation catalyzed by HACS JGI15 is identical to the examples described above (FIG. 38A).
The enzymes CoA transferase CaAbfT and HACS JG115 were overexpressed and purified as described above. In vitro purified enzyme reactions for condensation of methyl ketone and formyl-CoA were comprised of 100 mM KPi pH 6.9, 10 mM MgCl2, 0.15 mM TPP, 2 mM acetyl-CoA, 1 μM JGI15, 2 μM CaAbfT, 20 mM formate and 100 mM tested methyl ketones. Reactions were incubated at 30° C. for 24 hours unless otherwise specified.
For this analysis, samples containing acyl-CoAs were first treated with 1/20 of the reaction volume of 10 M NaOH solution was added to terminate the reactions. After 30 min hydrolysis, 1/20 of the reaction volume of 10 N H2SO4 was added to improve the efficiency of acid extraction. The resulting sample was extracted into 4 mL ethyl acetate by vigorous vortexing for 90 seconds. The organic phase was separated and evaporated to dryness under a stream of nitrogen. […] Samples were analyzed by GC (1 μL injection with a 20:1 split ratio) using helium as the carrier gas at a flowrate of 1.5 mL/min and the following temperature profile: initial 90° C. for 3 min; ramp at 15° C./min to 170° C.; ramp at 20° C./min to 300° C. and hold for 8 min. […]

The text below walks through data of patent publication US20260078416A1, “ORTHOGONAL METABOLIC FRAMEWORK FOR ONE-CARBON UTILIZATION” (Mojia Biotech Pte. Ltd., priority 2021, published 2026).

B1: JGI15: HACS variant; GenBank HAK63664.1 (protein)
chain: MAKSEGKVNGATLMARALQQQGVQYMFGIVGFPVIPIAIAAQREGITYIGMRNEQSASYAAQAASYLTGRPQACLVVSGPGVVHALAGLANAQVNCWPMLLIGGASAIEQNGMGAFQEERQVLLASPLCKYAHQVERPERIPYYVEQAVRSALFGRPGAAYLDMPDDVILGEVEEAAVRPAATVGEPPRSLAPQENIEAALDALQSAKRPLVIVGKGMAWSRAENEVRQFIERTRLPFLATPMGKGVMPDDHPLSVGGARSHALQEADLVFLLGARFNWILHFGLPPRYSKDVRVIQLDLSAEEIGNNRQAEVALVGDGKAIVGQLNQALSSRQWFYPAETPWREAIAAKIAGNQAAVAPMIADNTSPMNYYRVYRDIAARLPRNAIIVGEGANTMDIGRTQMPNFEPRSRLDAGSYGTMGIGLGFAVAAAAVHPGRPVIAVQGDSAFGFSGMEFETAARYGMPIKVIILNNGGIGMGSPAPRDGQPGMPHALSHDARYERIAEAFGGAGFYVTDSAELGPALDAAMAFKGPAIVNIKIAATADRKPQQFNWHG
On to B1, for which the “condensation of methyl ketones with formyl-CoA” value is reported as “could catalyze the condensation of tested ketones”.
